Experimental data from IntAct's records for PubMed 21423167.

B1: NF-kappa-B inhibitor alpha (Homo sapiens), P25963 (parent)
chain: MFQAAERPQEWAMEGPRDGLKKERLLDDRHDSGLDSMKDEEYEQMVKELQEIRLEPQEVPRGSEPWKQQLTEDGDSFLHLAIIHEEKALTMEVIRQVKGDLAFLNFQNNLQQTPLHLAVITNQPEIAEALLGAGCDPELRDFRGNTPLHLACEQGCLASVGVLTQSCTTPHLHSILKATNYNGHTCLHLASIHGYLGIVELLVSLGADVNAQEPCNGRTALHLAVDLQNPDLVSLLLKCGADVNRVTYQGYSPYQLTWGRPSTRIQQQLGQLTLENLQMLPESEDEESYDTESEFTEFTEDELPYDDCVFGGQRLTL
partner: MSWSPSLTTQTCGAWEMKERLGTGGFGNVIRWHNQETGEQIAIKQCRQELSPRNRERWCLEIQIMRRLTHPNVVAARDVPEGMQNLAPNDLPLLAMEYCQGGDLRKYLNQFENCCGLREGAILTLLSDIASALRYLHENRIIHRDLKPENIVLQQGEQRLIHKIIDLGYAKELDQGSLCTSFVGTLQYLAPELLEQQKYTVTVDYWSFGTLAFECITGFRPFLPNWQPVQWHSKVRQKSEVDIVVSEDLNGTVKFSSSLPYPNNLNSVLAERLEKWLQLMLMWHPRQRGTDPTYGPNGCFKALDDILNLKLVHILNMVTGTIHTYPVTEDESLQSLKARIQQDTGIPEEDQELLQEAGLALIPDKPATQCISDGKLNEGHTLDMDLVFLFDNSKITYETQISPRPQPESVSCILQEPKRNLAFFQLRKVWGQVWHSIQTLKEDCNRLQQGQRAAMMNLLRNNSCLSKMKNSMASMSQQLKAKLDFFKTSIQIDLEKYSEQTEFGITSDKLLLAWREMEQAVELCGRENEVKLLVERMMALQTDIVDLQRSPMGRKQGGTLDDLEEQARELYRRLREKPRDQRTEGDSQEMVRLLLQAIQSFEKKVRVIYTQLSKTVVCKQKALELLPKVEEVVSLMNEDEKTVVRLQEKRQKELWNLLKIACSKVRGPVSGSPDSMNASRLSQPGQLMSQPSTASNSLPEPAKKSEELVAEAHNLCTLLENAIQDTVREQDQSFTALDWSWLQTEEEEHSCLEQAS

Variants of: B1
Conditions: with ikkb_human IKBKB

Variant	effect of a mutation on the interaction
S32A;S36A	decreasing interaction
